{"source": "FireProtDB (doi:10.1074/jbc.274.53.37533)", "proteins": {"B1": {"name": "Cytochrome c-551 wild type, P00099 (protein)", "chain": "MKPYALLSLLATGTLLAQGAWAEDPEVLFKNKGCVACHAIDTKMVGPAYKDVAAKFAGQAGAEAELAQRIKNGSQGVWGPIPMPPNAVSDDEAQTLAKWVLSQK"}}, "settings": "Pseudomonas aeruginosa (strain ATCC 15692 / DSM 22644 / CIP 104116 / JCM 14847 / LMG 12228 / 1C / PRS 101 / PAO1), CD, HCl, whole UniProt chain shown"}
{"protein": "B1", "values": [{"measurement": "denaturant m value", "setting": "pH 5, 25 °C, GdnHCl", "result": 2.17, "unit": "kcal/mol/M"}, {"measurement": "denaturant midpoint (higher = more stable)", "setting": "pH 5, 25 °C, GdnHCl", "result": 2.25, "unit": "M"}, {"measurement": "Tm", "setting": "pH 5, Thermal", "result": 50.4, "unit": "°C"}, {"measurement": "unfolding enthalpy (van 't Hoff)", "setting": "pH 5, Thermal", "result": 37.6, "unit": "kcal/mol"}]}
